The source of these data is US8114832.

The target of data set [1] is T1, human fibrin α-chain(148-160) amyloid fragment with Lys157Gly mutation (FP13).
T1 chain: KRLEVDIDIGIRS

The target in data set [2] is T2, freshly dissolved FP13 K157G.
T2 chain: KRLEVDIDIGIRS

Data set [3] has as its target Human amyloid-β (1-40) Dutch type.
The target of data set [4] is human-modified gelatin (Gelofusine), stored at 4° C.
For data set [5], the target named is glycated hemoglobin (Hb-AGE), P69905.
Data set [6] concerns the target modified gelatin for infusion stored at 37° C.
Data set [7] addresses T3, non-amyloid fragment FP10 of human fibrin α-chain(148-157).
T3 chain: KRLEVDIDIK

A further data set has as its target T4, mIAPP.
T4 sequence (P12968 38-74, species assumed, looked up): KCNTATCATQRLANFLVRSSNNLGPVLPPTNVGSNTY

Data set [8] addresses heat-denatured MSA, P07724.
The target of data set [9] is reduced-alkylated MSA (alkyl-MSA), P07724.
Chain of reduced-alkylated MSA (alkyl-MSA), P07724 (P07724 25-608): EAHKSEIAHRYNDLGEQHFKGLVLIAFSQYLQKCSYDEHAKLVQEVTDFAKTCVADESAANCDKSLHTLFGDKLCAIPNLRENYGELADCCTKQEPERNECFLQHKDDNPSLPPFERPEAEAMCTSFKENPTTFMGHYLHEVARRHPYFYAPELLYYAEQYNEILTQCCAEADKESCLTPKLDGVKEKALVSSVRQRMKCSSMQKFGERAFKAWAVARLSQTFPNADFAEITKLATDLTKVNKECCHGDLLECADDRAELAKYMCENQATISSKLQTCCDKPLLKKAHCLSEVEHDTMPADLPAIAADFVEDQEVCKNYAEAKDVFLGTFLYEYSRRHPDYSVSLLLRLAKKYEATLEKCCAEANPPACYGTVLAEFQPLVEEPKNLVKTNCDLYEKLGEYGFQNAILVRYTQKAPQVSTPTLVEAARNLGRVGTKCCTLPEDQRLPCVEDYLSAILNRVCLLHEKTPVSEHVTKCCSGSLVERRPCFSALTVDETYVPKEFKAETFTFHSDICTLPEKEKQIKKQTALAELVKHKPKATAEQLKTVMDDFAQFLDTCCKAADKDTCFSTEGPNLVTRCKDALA
In data set [10] the target is Native MSA (nMSA), P07724.
Chain of Native MSA (nMSA), P07724 (P07724 25-608): as above
Data set [11] deals with T5, heat-denatured OVA (dOVA), P01012.
T5 chain: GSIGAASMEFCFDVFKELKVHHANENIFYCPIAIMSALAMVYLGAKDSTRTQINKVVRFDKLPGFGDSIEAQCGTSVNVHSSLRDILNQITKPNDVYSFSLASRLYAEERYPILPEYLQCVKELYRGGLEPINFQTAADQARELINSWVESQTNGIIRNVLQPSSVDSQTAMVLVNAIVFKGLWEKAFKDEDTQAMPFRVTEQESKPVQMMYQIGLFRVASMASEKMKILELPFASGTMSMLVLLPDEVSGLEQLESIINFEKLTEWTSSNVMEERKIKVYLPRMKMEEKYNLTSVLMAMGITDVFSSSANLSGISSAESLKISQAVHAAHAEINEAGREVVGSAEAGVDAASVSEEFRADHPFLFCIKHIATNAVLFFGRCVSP

For data set [12], the target named is heat/acid denatured glucagon, P01275.
Chain of heat/acid denatured glucagon, P01275 (P01275 53-81): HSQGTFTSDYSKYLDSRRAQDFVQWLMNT

Chain of endostatin, P39060 (P39060 whole entry, looked up): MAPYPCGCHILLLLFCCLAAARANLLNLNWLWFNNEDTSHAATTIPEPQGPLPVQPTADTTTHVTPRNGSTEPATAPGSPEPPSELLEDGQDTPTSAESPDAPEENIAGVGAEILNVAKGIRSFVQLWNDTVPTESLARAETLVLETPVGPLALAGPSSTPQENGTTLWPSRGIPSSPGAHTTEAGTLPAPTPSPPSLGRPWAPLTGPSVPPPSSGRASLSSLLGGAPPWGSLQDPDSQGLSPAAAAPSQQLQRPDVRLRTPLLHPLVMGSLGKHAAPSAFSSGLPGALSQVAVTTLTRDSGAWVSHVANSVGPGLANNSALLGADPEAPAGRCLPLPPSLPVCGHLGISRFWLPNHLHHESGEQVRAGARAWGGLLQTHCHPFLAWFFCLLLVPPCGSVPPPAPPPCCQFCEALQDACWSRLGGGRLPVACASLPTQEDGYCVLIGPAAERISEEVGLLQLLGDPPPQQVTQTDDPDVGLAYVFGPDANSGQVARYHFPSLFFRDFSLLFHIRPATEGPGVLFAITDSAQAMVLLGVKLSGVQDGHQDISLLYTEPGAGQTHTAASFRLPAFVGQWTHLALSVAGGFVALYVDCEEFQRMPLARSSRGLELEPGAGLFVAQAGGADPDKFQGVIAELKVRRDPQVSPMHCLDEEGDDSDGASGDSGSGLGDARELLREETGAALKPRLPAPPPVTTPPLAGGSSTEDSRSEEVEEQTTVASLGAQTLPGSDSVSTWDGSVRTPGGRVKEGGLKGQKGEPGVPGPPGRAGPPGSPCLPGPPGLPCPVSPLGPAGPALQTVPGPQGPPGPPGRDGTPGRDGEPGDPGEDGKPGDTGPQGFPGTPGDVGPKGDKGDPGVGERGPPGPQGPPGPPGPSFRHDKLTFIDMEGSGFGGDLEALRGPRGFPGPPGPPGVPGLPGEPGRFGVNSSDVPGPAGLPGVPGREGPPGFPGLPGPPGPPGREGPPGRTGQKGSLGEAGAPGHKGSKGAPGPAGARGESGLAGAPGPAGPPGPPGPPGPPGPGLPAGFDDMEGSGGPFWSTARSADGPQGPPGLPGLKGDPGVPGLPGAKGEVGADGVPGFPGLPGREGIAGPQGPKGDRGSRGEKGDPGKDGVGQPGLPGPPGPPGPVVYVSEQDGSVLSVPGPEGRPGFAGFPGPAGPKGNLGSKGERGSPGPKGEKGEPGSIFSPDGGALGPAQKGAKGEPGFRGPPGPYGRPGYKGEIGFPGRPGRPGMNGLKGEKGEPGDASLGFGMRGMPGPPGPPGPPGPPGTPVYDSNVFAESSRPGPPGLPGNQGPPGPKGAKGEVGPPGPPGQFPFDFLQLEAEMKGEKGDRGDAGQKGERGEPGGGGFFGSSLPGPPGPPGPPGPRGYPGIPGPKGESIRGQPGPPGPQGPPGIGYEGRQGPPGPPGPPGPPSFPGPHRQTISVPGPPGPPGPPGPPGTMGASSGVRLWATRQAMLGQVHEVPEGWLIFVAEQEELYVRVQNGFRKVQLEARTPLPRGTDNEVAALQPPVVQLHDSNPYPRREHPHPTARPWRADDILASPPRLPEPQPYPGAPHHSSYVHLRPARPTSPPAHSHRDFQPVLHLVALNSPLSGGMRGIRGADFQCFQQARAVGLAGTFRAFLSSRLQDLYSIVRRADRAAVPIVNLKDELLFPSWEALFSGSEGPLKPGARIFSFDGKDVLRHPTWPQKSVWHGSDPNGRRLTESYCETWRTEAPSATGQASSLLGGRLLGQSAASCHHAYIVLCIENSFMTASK
Chain of heat-denatured MSA, P07724 (P07724 25-608): as the sequence (P07724 25-608) above
Chain of glycated hemoglobin (Hb-AGE), P69905 (P69905 2-142, chain 1 of 2): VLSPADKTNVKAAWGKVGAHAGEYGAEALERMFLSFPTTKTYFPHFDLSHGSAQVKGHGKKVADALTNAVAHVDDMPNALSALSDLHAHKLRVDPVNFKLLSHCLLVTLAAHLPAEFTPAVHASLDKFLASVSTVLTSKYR
Chain of glycated hemoglobin (Hb-AGE), P69905 (chain, as listed by the source, chain 2 of 2): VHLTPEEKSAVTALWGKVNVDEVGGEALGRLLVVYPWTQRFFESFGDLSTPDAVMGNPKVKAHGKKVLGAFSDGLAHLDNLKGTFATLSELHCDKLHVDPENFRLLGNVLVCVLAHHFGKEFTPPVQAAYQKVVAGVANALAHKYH
Chain of native Hb, P69905 (P69905 2-142, chain 1 of 2): as the sequence (P69905 2-142, chain 1 of 2) above
Chain of native Hb, P69905 (chain, as listed by the source, chain 2 of 2): as the sequence (chain, as listed by the source, chain 2 of 2) above

B1: factor XII (protein)
chain: IPPWEAPKEHKYKAEEHTVVLTVTGEPCHFPFQYHRQLYHKCTHKGRPGPQPWCATTPNFDQDQRWGYCLEPKKVKDHCSKHSPCQKGGTCVNMPSGPHCLCPQHLTGNHCQKEKCFEPQLLRFFHKNEIWYRTEQAAVARCQCKGPDAHCQRLASQACRTNPCLHGGRCLEVEGHRLCHCPVGYTGAFCDVDTKASCYDGRGLSYRGLARTTLSGAPCQPWASEATYRNVTAEQARNWGLGGHAFCRNPDNDIRPWCFVLNRDRLSWEYCDLAQCQTPTQAAPPTPVSPRLHVPLMPAQPAPPKPQPTTRTPPQSQTPGALPAKREQPPSLTRNGPLSCGQRLRKSLSSMTRVVGGLVALRGAHPYIAALYWGHSFCAGSLIAPCWVLTAAHCLQDRPAPEDLTVVLGQERRNHSCEPCQTLAVRSYRLHEAFSPVSYQHDLALLRLQEDADGSCALLSPYVQPVCLPSGAARPSETTLCQVAGWGHQFEGAEEYASFLQEAQVPFLSLERCSAPDVHGSSILPGMLCAGFLEGGTDACQGDSGGPLVCEDQAAERRLTLQGIISWGSGCGDRNKPGVYTDVAYYLAWIREHTVS
On to B1, for which the “factor XII/kallikrein chromogenic assay” value in the data set with LAM12 is “cross-β structure conformation rich peptides LAM12 and TTR11 stimulate factor XII activation, to a similar extent as kaolin”; with TTR11, “cross-β structure conformation rich peptides LAM12 and TTR11 stimulate factor XII activation, to a similar extent as kaolin”. Also, the “auto-activation of purified factor XII, substrate S-2222” value was “FP13 K157G and Hb-AGE have a potency to induce auto-activation that was similar to the established surface activator DXS500k” in data set [1]; “Freshly dissolved native Hb, ultracentrifuged for one hour at 100,000*g, and freshly dissolved FP13 K157G did not or hardly auto-activate factor XII (not shown)” with native Hb, P69905; “Freshly dissolved native Hb, ultracentrifuged for one hour at 100,000*g, and freshly dissolved FP13 K157G did not or hardly auto-activate factor XII (not shown)” in data set [2]; “the potency of the Aβ(1-40) E22Q was somewhat lower” in data set [3]; “FP13 K157G and Hb-AGE have a potency to induce auto-activation that was similar to the established surface activator DXS500k” in data set [5]. For the same protein, the “conversion of Chromozym PK, upon formation of kallikrein from prekallikrein by activated factor XII” value in data set [1] is “amyloid-like peptide aggregates of FP13 and Aβ stimulate the activation of factor XII”; in data set [3], “amyloid-like peptide aggregates of FP13 and Aβ stimulate the activation of factor XII”; in data set [7] it was “non-amyloid controls FP10 and mIAPP do not activate factor XII”; with mIAPP, “non-amyloid controls FP10 and mIAPP do not activate factor XII”. Also, the “chromogenic kallikrein activity assay” value in [4] and in data set [6] was “Only gelatin kept at 37 °C activated factor XII” in each case.

B2: tissue-type plasminogen activator (tPA) (protein)
chain: SYQVICRDEKTQMIYQQHQSWLRPVLRSNRVEYCWCNSGRAQCHSVPVKSCSEPRCFNGGTCQQALYFSDFVCQCPEGFAGKCCEIDTRATCYEDQGISYRGTWSTAESGAECTNWNSSALAQKPYSGRRPDAIRLGLGNHNYCRNPDRDSKPWCYVFKAGKYSSEFCSTPACSEGNSDCYFGNGSAYRGTHSLTESGASCLPWNSMILIGKVYTAQNPSAQALGLGKHNYCRNPDGDAKPWCHVLKNRRLTWEYCDVPSCSTCGLRQYSQPQFRIKGGLFADIASHPWQAAIFAKHRRSPGERFLCGGILISSCWILSAAHCFQERFPPHHLTVILGRTYRVVPGEEEQKFEVEKYIVHKEFDDDTYDNDIALLQLKSDSSRCAQESSVVRTVCLPPADLQLPDWTECELSGYGKHEALSPFYSERLKEAHVRLYPSSRCTSQHLLNRTVTDNMLCAGDTRSGGPQANLHDACQGDSGGPLVCLNDGRMTLVGIISWGLGCGQKDVPGVYTKVTNYLDWIRDNMRP
As to B2, the tPA activation assay result with endostatin, P39060 was “the absence of tPA activating properties in 100 µg ml^-1 endostatin”; in data set [8], “Although heat-denatured MSA and alkylated MSA enhance ThT fluorescence to a similar extent, they differ in tPA activating potential”; in the data set with native glucagon, P01275, “at high glucagon concentration, also native glucagon has some tPA activating potential”; in data set [9] it was “Although heat-denatured MSA and alkylated MSA enhance ThT fluorescence to a similar extent, they differ in tPA activating potential”; in data set [12], “a potent activator of tPA was obtained”. Moreover, the “chromogenic Plg-activation assay” value in [1] is reported as “The positive control was amyloid fibrin peptide FP13”. Moreover, the Plg-activation assay entry in data set [10] was “native MSA enhanced ThT fluorescence to some extent, but this was not reflected by stimulation of tPA activation”; in [11], “The presence of the cross-β structure conformation was established with ThT fluorescence and Plg-activation assays and by TEM imaging”.
